13 molecules from publication PMC10397247 can be followed below.

What all share (experiment): two-hybrid library CCmax;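 also: natural log of median RNA to DNA barcode read ratio; higher means stronger binding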
One assay concerns the target T1, P6-AA-1HAA-S.
T1 chain: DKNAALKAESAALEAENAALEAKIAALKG
Particulars: mean of both orientations.

The target in the next assay is T2, P6-AA-1HAA-K.
T2 chain: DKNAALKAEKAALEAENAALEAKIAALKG

For the next assay, the target named is T3, P6-AA-1HAA-V.
T3 chain: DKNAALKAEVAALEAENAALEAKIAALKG

Another assay addresses T4, P6-AA-1HAA-T.
T4 chain: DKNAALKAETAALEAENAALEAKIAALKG
As to conditions: mean of both orientations.

The target of another assay is T5, P6-AA-1HAA-R.
T5 chain: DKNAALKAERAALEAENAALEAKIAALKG
Particulars: mean of both orientations.

In a further assay the target is T6, P6-AA-1HAA-H.
T6 chain: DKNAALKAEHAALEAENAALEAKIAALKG

The target of the next assay is T7, P6-AA-1HAA-N.
T7 chain: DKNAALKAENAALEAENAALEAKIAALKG
As to conditions: mean of both orientations.

The target of another assay is T8, P6-AA-1HAA-E.
T8 chain: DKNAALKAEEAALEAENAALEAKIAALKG
Particulars: mean of both orientations.

The next assay has as its target T9, P6-AA-1HAA-L.
T9 chain: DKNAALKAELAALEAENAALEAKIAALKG
As to conditions: mean of both orientations.

Another assay concerns the target T10, P6-AA-1HAA-D.
T10 chain: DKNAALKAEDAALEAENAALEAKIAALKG
As to conditions: mean of both orientations.

The target of the next assay is T11, P6-AA-1HAA-Y.
T11 chain: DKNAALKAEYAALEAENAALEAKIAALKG

Another assay deals with T12, P6-AA-12HAA-R.
T12 chain: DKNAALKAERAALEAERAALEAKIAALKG
As to conditions: mean of both orientations.

In a further assay the target is T13, P6-AA-12HAA-H.
T13 chain: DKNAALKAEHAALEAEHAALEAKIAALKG
Particulars: mean of both orientations.

For a further assay, the target named is T14, P6-AA-12HAA-Y.
T14 chain: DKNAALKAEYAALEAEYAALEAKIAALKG

The target in the next assay is T15, P6-AA-12HAA-S.
T15 chain: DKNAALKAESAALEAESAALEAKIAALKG

Another assay deals with T16, P6-AA-12HAA-D.
T16 chain: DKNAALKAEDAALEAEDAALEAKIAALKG
Particulars: mean of both orientations.

For another assay, the target named is T17, P6-AA-12HAA-L.
T17 chain: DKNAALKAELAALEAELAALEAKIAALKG
Particulars: mean of both orientations.

The target of the next assay is T18, P6-AA-12HAA-V.
T18 chain: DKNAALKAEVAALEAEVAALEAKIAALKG
As to conditions: mean of both orientations.

A further assay deals with T19, P6-AA-12HAA-T.
T19 chain: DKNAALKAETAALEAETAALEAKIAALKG

A further assay has as its target T20, P6-AA-12HAA-E.
T20 chain: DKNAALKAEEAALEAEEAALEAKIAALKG
Particulars: mean of both orientations.

A further assay deals with T21, P6-AA-12HAA-K.
T21 chain: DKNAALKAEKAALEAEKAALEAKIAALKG

Like-named read-outs stand apart in the source and are kept apart here.

Regarding DENAALEAKAAALKAKNAALKAEIAALEG [P5-AA-1HAA-A], the interaction score is -0.02 in the assay with P6-AA-1HAA-S; -0.453 in the assay with P6-AA-1HAA-K (mean of both orientations); 2.66 in the assay with P6-AA-1HAA-V; 0.325 with P6-AA-1HAA-T; -0.629 with P6-AA-1HAA-R; -0.274 with P6-AA-1HAA-H (mean of both orientations). Moreover, the interaction score with P6-AA-1HAA-N is 0.981; with P6-AA-1HAA-E it was -0.184; with P6-AA-1HAA-L, 1.94; with P6-AA-1HAA-D, -1.94; in the assay with P6-AA-1HAA-Y (mean of both orientations), 0.845.
Turning to DENAALEAKVAALKAKNAALKAEIAALEG [P5-AA-1HAA-V], the interaction score came to 1.53 in the assay with P6-AA-1HAA-S; 2.25 with P6-AA-1HAA-K (mean of both orientations); 2.09 with P6-AA-1HAA-V (mean of both orientations); 1.93 in the assay with P6-AA-1HAA-T; 1.76 with P6-AA-1HAA-R; 1.79 with P6-AA-1HAA-H (mean of both orientations). Moreover, the interaction score was 1.42 with P6-AA-1HAA-N; 2.25 with P6-AA-1HAA-E; 2.32 with P6-AA-1HAA-L; 0.818 in the assay with P6-AA-1HAA-D; 2.48 with P6-AA-1HAA-Y (mean of both orientations).
On to DENAALEAKSAALKAKNAALKAEIAALEG [P5-AA-1HAA-S], for which the interaction score is -0.742 in the assay with P6-AA-1HAA-S; -1.01 with P6-AA-1HAA-K; 2.16 with P6-AA-1HAA-V (mean of both orientations); 0.235 in the assay with P6-AA-1HAA-T; -0.821 with P6-AA-1HAA-R; 0.0581 with P6-AA-1HAA-H (mean of both orientations). Besides, the interaction score with P6-AA-1HAA-N is 0.913; in the assay with P6-AA-1HAA-E, -0.781; with P6-AA-1HAA-L, 1.67; with P6-AA-1HAA-D, -1.74; with P6-AA-1HAA-Y (mean of both orientations), 0.832.
As to DENAALEAKDAALKAKDAALKAEIAALEG [P5-AA-12HAA-D], the interaction score with P6-AA-12HAA-R is -1.55; in the assay with P6-AA-12HAA-H, -1.57; with P6-AA-12HAA-Y, -1.95; in the assay with P6-AA-1HAA-N, -1.68; with P6-AA-12HAA-S (mean of both orientations), -1.67; in the assay with P6-AA-12HAA-D, -1.47. Also, the interaction score with P6-AA-12HAA-L is -1.56; with P6-AA-12HAA-V it was -1.32; with P6-AA-12HAA-T (mean of both orientations) it was -1.41; with P6-AA-12HAA-E it was -1.97; in the assay with P6-AA-12HAA-K (mean of both orientations), -1.61.
As to DENAALEAKAAALKAKAAALKAEIAALEG [P5-AA-12HAA-A], the interaction score with P6-AA-12HAA-R is -2.54; with P6-AA-12HAA-H, -1.86; with P6-AA-12HAA-Y (mean of both orientations), -0.289; with P6-AA-1HAA-N it was -1.39; with P6-AA-12HAA-S (mean of both orientations), -1.71; with P6-AA-12HAA-D it was -1.63. In addition, the interaction score with P6-AA-12HAA-L is 1.96; with P6-AA-12HAA-V, 1.95; with P6-AA-12HAA-T (mean of both orientations), -0.646; in the assay with P6-AA-12HAA-E it was -1.81; with P6-AA-12HAA-K, -1.98.
In the case of DENAALEAKYAALKAKYAALKAEIAALEG [P5-AA-12HAA-Y], the interaction score with P6-AA-12HAA-R was -1.41; with P6-AA-12HAA-H it was -1.67; with P6-AA-12HAA-Y (mean of both orientations), 1.48; in the assay with P6-AA-1HAA-N it was -0.0879; with P6-AA-12HAA-S (mean of both orientations), -1.4; in the assay with P6-AA-12HAA-D, -1.3. The interaction score in the assay with P6-AA-12HAA-L was 2.06; in the assay with P6-AA-12HAA-V, 2.38; with P6-AA-12HAA-T, -0.448; with P6-AA-12HAA-E it was -1.65; with P6-AA-12HAA-K (mean of both orientations) it was -1.55.
As for DENAALEAKYAALKAKNAALKAEIAALEG [P5-AA-1HAA-Y], the interaction score was 1.55 in the assay with P6-AA-1HAA-S; 0.174 with P6-AA-1HAA-K (mean of both orientations); 1.79 in the assay with P6-AA-1HAA-V (mean of both orientations); 1.28 in the assay with P6-AA-1HAA-T; -0.286 with P6-AA-1HAA-R; -0.1 with P6-AA-1HAA-H (mean of both orientations). The interaction score is 1.76 with P6-AA-1HAA-N; -0.129 with P6-AA-1HAA-E; 1.72 in the assay with P6-AA-1HAA-L; -0.899 with P6-AA-1HAA-D; 1.34 with P6-AA-1HAA-Y (mean of both orientations).
DENAALEAKRAALKAKNAALKAEIAALEG [P5-AA-1HAA-R]: the interaction score was 0.434 with P6-AA-1HAA-S; -0.713 with P6-AA-1HAA-K (mean of both orientations); 2.18 in the assay with P6-AA-1HAA-V (mean of both orientations); 1.54 with P6-AA-1HAA-T; -1.22 with P6-AA-1HAA-R; -0.333 with P6-AA-1HAA-H. Besides, the interaction score was 1.85 in the assay with P6-AA-1HAA-N; -0.332 with P6-AA-1HAA-E; 2.18 in the assay with P6-AA-1HAA-L; -0.756 with P6-AA-1HAA-D; 0.0514 with P6-AA-1HAA-Y (mean of both orientations).
Take DENAALEAKKAALKAKNAALKAEIAALEG [P5-AA-1HAA-K]: the interaction score with P6-AA-1HAA-S was 0.0853; with P6-AA-1HAA-K (mean of both orientations), -0.653; with P6-AA-1HAA-V (mean of both orientations), 2.05; in the assay with P6-AA-1HAA-T it was 1.53; with P6-AA-1HAA-R, -1.3; in the assay with P6-AA-1HAA-H (mean of both orientations), -0.889. The interaction score with P6-AA-1HAA-N is 1.41; in the assay with P6-AA-1HAA-E, -0.501; with P6-AA-1HAA-L it was 1.84; in the assay with P6-AA-1HAA-D, -0.814; in the assay with P6-AA-1HAA-Y (mean of both orientations) it was 0.0221.
Consider DENAALEAKLAALKAKNAALKAEIAALEG [P5-AA-1HAA-L], for which the interaction score with P6-AA-1HAA-S turned out to be 1.85; in the assay with P6-AA-1HAA-K (mean of both orientations), 1.78; with P6-AA-1HAA-V (mean of both orientations), 2.31; with P6-AA-1HAA-T, 2.08; with P6-AA-1HAA-R it was 1.43; with P6-AA-1HAA-H (mean of both orientations) it was 1.55. Further, the interaction score is 1.66 with P6-AA-1HAA-N; 1.45 in the assay with P6-AA-1HAA-E; 2.49 with P6-AA-1HAA-L; -0.436 in the assay with P6-AA-1HAA-D; 1.93 in the assay with P6-AA-1HAA-Y (mean of both orientations).
DENAALEAKDAALKAKNAALKAEIAALEG [P5-AA-1HAA-D]: the interaction score with P6-AA-1HAA-S was -1.34; with P6-AA-1HAA-K (mean of both orientations), -1.15; with P6-AA-1HAA-V (mean of both orientations), 0.68; with P6-AA-1HAA-T, -1.02; with P6-AA-1HAA-R it was -1.35; with P6-AA-1HAA-H (mean of both orientations) it was -0.764. Moreover, the interaction score with P6-AA-1HAA-N is -1.12; with P6-AA-1HAA-E it was -1.72; with P6-AA-1HAA-L, -0.571; with P6-AA-1HAA-D it was -1.42; in the assay with P6-AA-1HAA-Y it was -0.724.
For DENAALEAKHAALKAKHAALKAEIAALEG [P5-AA-12HAA-H], the interaction score with P6-AA-12HAA-R was -1.68; with P6-AA-12HAA-H it was -1.49; in the assay with P6-AA-12HAA-Y (mean of both orientations) it was -0.856; in the assay with P6-AA-1HAA-N it was 0.14; in the assay with P6-AA-12HAA-S, -1.37; with P6-AA-12HAA-D it was -1.53. Further, the interaction score is 1.16 with P6-AA-12HAA-L; 1.55 with P6-AA-12HAA-V; -0.831 with P6-AA-12HAA-T (mean of both orientations); -1.49 with P6-AA-12HAA-E; -1.6 with P6-AA-12HAA-K (mean of both orientations).
Turning to DENAALEAKHAALKAKNAALKAEIAALEG [P5-AA-1HAA-H], the interaction score with P6-AA-1HAA-S is 0.88; with P6-AA-1HAA-K (mean of both orientations), -0.495; in the assay with P6-AA-1HAA-V (mean of both orientations), 2.15; with P6-AA-1HAA-T, 1.49; with P6-AA-1HAA-R, -1.13; in the assay with P6-AA-1HAA-H (mean of both orientations), -0.596. For the same molecule, the interaction score in the assay with P6-AA-1HAA-N is 1.97; in the assay with P6-AA-1HAA-E, -0.637; in the assay with P6-AA-1HAA-L, 1.9; in the assay with P6-AA-1HAA-D it was -0.238; with P6-AA-1HAA-Y (mean of both orientations) it was 0.439.
